Data on 39 variants can be found in the Human Domainome abundance scans (Beltran et al. 2025).

± gives the uncertainty stated by the source.

The labels stand for the following.
B1: GAS2-like protein 1, residues 209 to 276; numbered along this chain, Q99501 (parent)
chain: DELVREILGRCTCPDQFPMIKVSEGKYRVGDSSLLIFVRVLRSHVMVRVGGGWDTLEHYLDKHDPCRC

In this data set the parent is B1. Nature of the data set: abundance fitness (aPCA) (normalised: wild type 0, dead -1); higher = more abundant; growth selection in yeast, the domain comes from the species named. The note with it: Homo sapiens.
For the variant DELVREILGRCTCPDQFPMIKVSEGKYRVGDSSLLIFVRVLRSHVHVRVGGGWDTLEHYLDKHDPCRC [M46H], the abundance fitness is -0.332 ± 0.095.
With DELVREILGRCTCPDQFPMIKVSEGKYRVGDSSLLIFVRVLRSHVPVRVGGGWDTLEHYLDKHDPCRC [M46P], the abundance fitness is -0.476 ± 0.11.
The same measure for DELVREILGRCTCPDQFPMIKVSEGKYRVGDSSLLIFVRVLRSHVEVRVGGGWDTLEHYLDKHDPCRC [M46E]: -0.455 ± 0.14.
With DELVREILGRCTCPDQFPMIKVSEGKYRVGDSSLLIFVRVLRSHVTVRVGGGWDTLEHYLDKHDPCRC [M46T], the abundance fitness is -0.299 ± 0.15.
With DELVREILGRCTCPDQFPMIKVSEGKYRVGDSSLLIFVRVLRSHVSVRVGGGWDTLEHYLDKHDPCRC [M46S], the abundance fitness is -0.642 ± 0.087.
On to DELVREILGRCTCPDQFPMIKVSEGKYRVGDSSLLIFVRVLRSHVRVRVGGGWDTLEHYLDKHDPCRC [M46R], for which the abundance fitness is -0.541 ± 0.093.
The same measure for DELVREILGRCTCPDQFPMIKVSEGKYRVGDSSLLIFVRVLRSHVAVRVGGGWDTLEHYLDKHDPCRC [M46A]: -0.596 ± 0.089; for DELVREILGRCTCPDQFPMIKVSEGKYRVGDSSLLIFVRVLRSHVKVRVGGGWDTLEHYLDKHDPCRC [M46K]: -0.601 ± 0.13; for DELVREILGRCTCPDQFPMIKVSEGKYRVGDSSLLIFVRVLRSHVIVRVGGGWDTLEHYLDKHDPCRC [M46I]: -0.186 ± 0.14.
The same measure for DELVREILGRCTCPDQFPMIKVSEGKYRVGDSSLLIFVRVLRSHVQVRVGGGWDTLEHYLDKHDPCRC [M46Q]: -0.093 ± 0.093; for DELVREILGRCTCPDQFPMIKVSEGKYRVGDSSLLIFVRVLRSHVLVRVGGGWDTLEHYLDKHDPCRC [M46L]: -0.056 ± 0.055.
As for DELVREILGRCTCPDQFPMIKVSEGKYRVGDSSLLIFVRVLRSHVCVRVGGGWDTLEHYLDKHDPCRC [M46C], the abundance fitness is -0.24 ± 0.15.
The same measure for DELVREILGRCTCPDQFPMIKVSEGKYRVGDSSLLIFVRVLRSHVVVRVGGGWDTLEHYLDKHDPCRC [M46V]: -0.322 ± 0.091; for DELVREILGRCTCPDQFPMIKVSEGKYRVGDSSLLIFVRVLRSHVYVRVGGGWDTLEHYLDKHDPCRC [M46Y]: 0.109 ± 0.11; for DELVREILGRCTCPDQFPMIKVSEGKYRVGDSSLLIFVRVLRSHVGVRVGGGWDTLEHYLDKHDPCRC [M46G]: -0.666 ± 0.1.
Turning to DELVREILGRCTCPDQFPMIKVSEGKYRVGDSSLLIFVRVLRSHVDVRVGGGWDTLEHYLDKHDPCRC [M46D], the abundance fitness is -0.931 ± 0.37.
The value for DELVREILGRCTCPDQFPMIKVSEGKYRVGDSSLLIFVRVYRSHVMVRVGGGWDTLEHYLDKHDPCRC [L41Y] was 0.086 ± 0.09.
DELVREILGRCTCPDQFPMIKVSEGKYRVGDSSLLIFVRVWRSHVMVRVGGGWDTLEHYLDKHDPCRC [L41W]: the abundance fitness amounted to 0.032 ± 0.041.
The value for DELVREILGRCTCPDQFPMIKVSEGKYRVGDSSLLIFVRVSRSHVMVRVGGGWDTLEHYLDKHDPCRC [L41S] was -0.013 ± 0.047; that for DELVREILGRCTCPDQFPMIKVSEGKYRVGDSSLLIFVRVVRSHVMVRVGGGWDTLEHYLDKHDPCRC [L41V] was 0.149 ± 0.029; that for DELVREILGRCTCPDQFPMIKVSEGKYRVGDSSLLIFVRVLRPHVMVRVGGGWDTLEHYLDKHDPCRC [S43P] was 0.01 ± 0.059.
The value for DELVREILGRCTCPDQFPMIKVSEGKYRVGDSSLLIFVRVLRTHVMVRVGGGWDTLEHYLDKHDPCRC [S43T] was -0.011 ± 0.13; that for DELVREILGRCTCPDQFPMIKVSEGKYRVGDSSLLIFVRVLRLHVMVRVGGGWDTLEHYLDKHDPCRC [S43L] was -0.648 ± 0.12; that for DELVREILGRCTCPDQFPMIKVSEGKYRVGDSSLLIFVRVLRVHVMVRVGGGWDTLEHYLDKHDPCRC [S43V] was -0.58 ± 0.11.
The value for DELVREILGRCTCPDQFPMIKVSEGKYRVGDSSLLIFVRVLRFHVMVRVGGGWDTLEHYLDKHDPCRC [S43F] was -0.175 ± 0.14; that for DELVREILGRCTCPDQFPMIKVSEGKYRVGDSSLLIFVRVLRGHVMVRVGGGWDTLEHYLDKHDPCRC [S43G] was 0.253 ± 0.054.
As for DELVREILGRCTCPDQFPMIKVSEGKYRVGDSSLLIFVRVLRYHVMVRVGGGWDTLEHYLDKHDPCRC [S43Y], the abundance fitness was -0.405 ± 0.43.
The same measure for DELVREILGRCTCPDQFPMIKVSEGKYRVGDSSLLIFVRVLRNHVMVRVGGGWDTLEHYLDKHDPCRC [S43N]: 0.124 ± 0.064; for DELVREILGRCTCPDQFPMIKVSEGKYRVGDSSLLIFVRVLRAHVMVRVGGGWDTLEHYLDKHDPCRC [S43A]: -0.158 ± 0.076.
The value for DELVREILGRCTCPDQFPMIKVSEGKYRVGDSSLLIFVRVLRMHVMVRVGGGWDTLEHYLDKHDPCRC [S43M] was -0.362 ± 0.12; that for DELVREILGRCTCPDQFPMIKVSEGKYRVGDSSLLIFVRVLRWHVMVRVGGGWDTLEHYLDKHDPCRC [S43W] was -0.462 ± 0.32; that for DELVREILGRCTCPDQFPMIKVSEGKYRVGDSSLLIFVRVLREHVMVRVGGGWDTLEHYLDKHDPCRC [S43E] was 0.164 ± 0.12.
The value for DELVREILGRCTCPDQFPMIKVSEGKYRVGDSSLLIFVRVLTSHVMVRVGGGWDTLEHYLDKHDPCRC [R42T] was -0.334 ± 0.078; that for DELVREILGRCTCPDQFPMIKVSEGKYRVGDSSLLIFVRVLQSHVMVRVGGGWDTLEHYLDKHDPCRC [R42Q] was -0.005 ± 0.057; that for DELVREILGRCTCPDQFPMIKVSEGKYRVGDSSLLIFVRVLISHVMVRVGGGWDTLEHYLDKHDPCRC [R42I] was -0.913 ± 0.24.
In the case of DELVREILGRCTCPDQFPMIKVSEGKYRVGDSSLLIFVRVLDSHVMVRVGGGWDTLEHYLDKHDPCRC [R42D], the abundance fitness was determined as 0.134 ± 0.075.
On to DELVREILGRCTCPDQFPMIKVSEGKYRVGDSSLLIFVRVLLSHVMVRVGGGWDTLEHYLDKHDPCRC [R42L], for which the abundance fitness was -0.541 ± 0.066.
With DELVREILGRCTCPDQFPMIKVSEGKYRVGDSSLLIFVRVLVSHVMVRVGGGWDTLEHYLDKHDPCRC [R42V], the abundance fitness was -0.639 ± 0.12.
Take DELVREILGRCTCPDQFPMIKVSEGKYRVGDSSLLIFVRVLNSHVMVRVGGGWDTLEHYLDKHDPCRC [R42N]: the abundance fitness was found to be 0.119 ± 0.069.
